Experimental data from patent US9650414B1, “Dual-action EP4 agonist—bisphosphonate conjugates and uses thereof” (Simon Fraser University, priority 2014, dated 2017).

Assays:
human Cathepsin K = molecular target: T1, human Cathepsin K (Homo sapiens, UniProt P43235); experiment: Cathepsin K assay, hydrolysis of conjugates by human Cathepsin K; assay type: biochemical; conditions: conjugate 100 uM, CatK 0.2 uM, pH 5.5, 37 C
T1 construct: purchased Sigma-Aldrich; host or cells: E. coli
T1 sequence (P43235 115-329): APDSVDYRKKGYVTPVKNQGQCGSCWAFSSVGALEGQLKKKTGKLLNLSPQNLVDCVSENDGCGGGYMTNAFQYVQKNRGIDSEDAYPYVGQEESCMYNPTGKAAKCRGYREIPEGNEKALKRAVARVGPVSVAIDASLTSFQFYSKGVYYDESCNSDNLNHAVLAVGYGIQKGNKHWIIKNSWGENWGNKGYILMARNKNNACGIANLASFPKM
Experimental: (§1) Cathepsin K rat (recombinant, expressed in E. coli) was obtained from Merck as a gift. […] Enzyme activity was assayed using the Cathepsin K standard substrate Z-Leu-Arg-AMC. […] The appearances of released self-immolative linker 4-aminobenyl alcohol were recorded.

rat Cathepsin K = molecular target: T2, rat Cathepsin K (Rattus norvegicus, UniProt O35186); experiment: Cathepsin K assay, hydrolysis of conjugates by rat Cathepsin K; assay type: biochemical; conditions: conjugate 100 uM, CatK 0.2 uM, pH 5.5, 37 C
T2 construct: Merck (gift); host or cells: E. coli
T2 sequence (O35186 115-329): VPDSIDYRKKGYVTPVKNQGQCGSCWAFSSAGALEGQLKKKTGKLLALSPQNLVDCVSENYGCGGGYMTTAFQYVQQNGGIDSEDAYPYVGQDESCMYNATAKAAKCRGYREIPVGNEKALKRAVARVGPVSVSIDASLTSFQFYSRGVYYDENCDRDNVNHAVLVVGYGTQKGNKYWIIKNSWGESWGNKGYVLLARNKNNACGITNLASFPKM
Experimental: as §1

[1] = Analysis of the blood samples, level of tritiated 17a in blood; assay type: in vivo; conditions: rat, tail vein bolus, [3H]-17a
Experimental: (§2) Female Sprague Dawley rats (Charles River) were about 13 weeks old when received. They were acclimatized to the facility and operators, and were randomly divided to five groups: 6 hour, 1-, 7, 14 and -28 day. Dose: [^3H]-17a: 8.90 μCi/rat, [^14C]-17a 1.77 uCi/rat, and 17a 5.0 mg/kg. Formulation: conjugate 17a was suspended in Poloxamer 188 solution 10%, and adjusted to pH 8.0 by NaHCO3, then diluted by equal volume of PBS. The dosing was done with a fixed volume of 500 μL. The bolus injection and blood sampling were done via the tail vein. […] Long bones were harvested and counted.
Three Female Sprague Dawley rats (Charles River) were about 23 weeks old when received. They were acclimatized to the facility and operators. Dose: [^3H]-17a: 31.0 μCi/rat. Blood samples (0.5 mL per time point per rat) were taken from the 6-hour group of rats 0.5, 1, 2, 4, 6 hour and placed in heparinized micro-centrifuge tubes. Blood samples from the (500 μL) were centrifuged at ˜5000×G until plasma had separated. 100 μL of the supernatant was analyzed in a Harvey OX-300 biological oxidizer using the four-minute program. The collected scintillation mixture was counted on a Beckman Coulter LS-6500 scintillation counter. The counting time was two minute.

[2] = Rat organ distribution, uptake and release of conjugate 17a in rat bone; assay type: in vivo
Experimental: as §2
After 6 h, 1, 7, 14, 28 days three animals were weighed, sacrificed by CO2 and blood, fat, muscle, brain, heart, kidney, spleen, liver and bone were dissected and cleaned free of any loose tissue. The amount of radioactivity was determined by incineration in a R. J. Harvey OX300 Biological Oxidizer. The percent of the compound retained in the skeleton and the other organs at each time point was calculated by measuring activity per gram (μCi/g) in the collected samples and extrapolating to total activity retained in the skeleton and the other organs, the weight of skeleton was calculated by 8% of the body weight, the weight of the other organs was measured by balance. […] Table 3 and FIGS. 7A-E show rat organ distribution, uptake and release of a representative conjugate compound 17a.

N=C(N)NCCC[C@H](NC(=O)[C@@H]1CCCN1C(=O)OCc1ccccc1)C(=O)Nc1ccc(COC(=O)NCCCC(O)(P(=O)(O)O)P(=O)(O)O)cc1 [Compound 6, (4-((((4-((S)-2-((S)-1-((benzyloxy)carbonyl)pyrrolidine-2-carboxamido)-5-guanidinopentanamido)benzyl)oxy)carbonyl)amino)-1-hydroxybutane-1,1-diyl)bis(phosphonic acid)]
hydrolysis by Hum CatK (human Cathepsin K; 1 hour): 90%
hydrolysis by Hum CatK (human Cathepsin K; 2 hour): 98%
hydrolysis by Rat CatK (rat Cathepsin K; 1 hour): 5%
hydrolysis by Rat CatK (rat Cathepsin K; 2 hour): 10%
hydrolysis by Rat CatK (rat Cathepsin K; 20 hour): 52%

CC(C)C[C@H](NC(=O)OCc1ccccc1)C(=O)N[C@@H](CCCNC(=N)N)C(=O)Nc1ccc(COC(=O)NCCCC(O)(P(=O)(O)O)P(=O)(O)O)cc1 [Compound 7]
hydrolysis by Hum CatK (human Cathepsin K; 1 hour): 66%
hydrolysis by Hum CatK (human Cathepsin K; 2 hour): 75%
hydrolysis by Hum CatK (human Cathepsin K; 3 hour): 79 (3 hour) %
hydrolysis by Rat CatK (rat Cathepsin K; 1 hour): 73%
hydrolysis by Rat CatK (rat Cathepsin K; 2 hour): 80%
hydrolysis by Rat CatK (rat Cathepsin K; 20 hour): 95%

N=C(N)NCCC[C@H](NC(=O)[C@@H]1CCCN1C(=O)CNC(=O)OCc1ccccc1)C(=O)Nc1ccc(COC(=O)NCCCC(O)(P(=O)(O)O)P(=O)(O)O)cc1 [Compound 8, (4-((((4-((S)-2-((S)-1-(((benzyloxy)carbonyl)glycyl)pyrrolidine-2-carboxamido)-5-guanidinopentanamido)benzyl)oxy)carbonyl)amino)-1-hydroxybutane-1,1-diyl)bis(phosphonic acid)]
hydrolysis by Hum CatK (human Cathepsin K; 1 hour): 91%
hydrolysis by Hum CatK (human Cathepsin K; 2 hour): 100%
hydrolysis by Rat CatK (rat Cathepsin K; 1 hour): 11%
hydrolysis by Rat CatK (rat Cathepsin K; 2 hour): 20%
hydrolysis by Rat CatK (rat Cathepsin K; 20 hour): 80%

CCOC(=O)CCCCCCN1C(=O)CC[C@@H]1/C=C/[C@@H](OC(=O)Cc1ccc(COC(=O)N[C@@H](CC(C)C)C(=O)N[C@@H](CCCNC(=N)N)C(=O)Nc2ccc(COC(=O)NCCCC(O)(P(=O)(O)O)P(=O)(O)O)cc2)cc1)C(F)(F)c1ccccc1 [Compound 17a, (4-((((4-((S)-2-((S)-2-((((4-(2-(((R,E)-4-((R)-1-(7-ethoxy-7-oxoheptyl)-5-oxopyrrolidin-2-yl)-1,1-difluoro-1-phenylbut-3-en-2-yl)oxy)-2-oxoethyl)benzyl)oxy)carbonyl)amino)-4-methylpentanamido)-5-guanidinopentanamido)benzyl)oxy)carbonyl)amino)-1-hydroxybutane-1,1-diyl)bis(phosphonic acid)]
clearance from circulating blood, t1/2 [1]: ~30 min
behavior or reaction of dosed animals ([2]; 17a 5.0 mg/kg, tail vein bolus): no unusual behavior or reaction to the drug treatment
distribution of radio-activity ([2]; at 6 hours): most radio-activity was observed in liver and bones
uptake ([2]; by 3H): 2%
uptake ([2]; by 14C): ~5%
distribution of radio-activity ([2]; by 7 days): only bones had a significant amount of radio-activity
Percentage of dose in Bone ([2]; tail vein bolus, 3H, 1-day): 2.12%
Percentage of dose in Brain ([2]; tail vein bolus, 3H, 1-day): 0.025%
Percentage of dose in Heart ([2]; tail vein bolus, 3H, 1-day): 0.021%
Percentage of dose in Kidney ([2]; tail vein bolus, 3H, 1-day): 0.11%
Percentage of dose in Liver ([2]; tail vein bolus, 3H, 1-day): 2.33%
Percentage of dose in Spleen ([2]; tail vein bolus, 3H, 1-day): 0.22%
Percentage of dose in Bone ([2]; tail vein bolus, 3H, 6-hour): 2.10%
Percentage of dose in Brain ([2]; tail vein bolus, 3H, 6-hour): 0.022%
Percentage of dose in Heart ([2]; tail vein bolus, 3H, 6-hour): 0.025%
Percentage of dose in Kidney ([2]; tail vein bolus, 3H, 6-hour): 0.21%
Percentage of dose in Liver ([2]; tail vein bolus, 3H, 6-hour): 8.95%
Percentage of dose in Spleen ([2]; tail vein bolus, 3H, 6-hour): 0.35%
Percentage of dose in Bone ([2]; tail vein bolus, 3H, 7-day): 1.30%
Percentage of dose in Brain ([2]; tail vein bolus, 3H, 7-day): LOD
Percentage of dose in Heart ([2]; tail vein bolus, 3H, 7-day): 0.014%
Percentage of dose in Kidney ([2]; tail vein bolus, 3H, 7-day): 0.053%
Percentage of dose in Liver ([2]; tail vein bolus, 3H, 7-day): 0.48%
Percentage of dose in Spleen ([2]; tail vein bolus, 3H, 7-day): 0.076%
Percentage of dose in Bone ([2]; tail vein bolus, 3H, 14-day): 0.80%
Percentage of dose in Brain ([2]; tail vein bolus, 3H, 14-day): LOD
Percentage of dose in Heart ([2]; tail vein bolus, 3H, 14-day): LOD
Percentage of dose in Kidney ([2]; tail vein bolus, 3H, 14-day): 0.026%
Percentage of dose in Liver ([2]; tail vein bolus, 3H, 14-day): 0.30%
Percentage of dose in Spleen ([2]; tail vein bolus, 3H, 14-day): 0.039%
Percentage of dose in Bone ([2]; tail vein bolus, 3H, 28-day): 0.74%
Percentage of dose in Brain ([2]; tail vein bolus, 3H, 28-day): LOD
Percentage of dose in Heart ([2]; tail vein bolus, 3H, 28-day): LOD
Percentage of dose in Kidney ([2]; tail vein bolus, 3H, 28-day): 0.017%
Percentage of dose in Liver ([2]; tail vein bolus, 3H, 28-day): 0.08%
Percentage of dose in Spleen ([2]; tail vein bolus, 3H, 28-day): 0.037%
Percentage of dose in Bone ([2]; tail vein bolus, 14C, 1-day): 4.63%
Percentage of dose in Brain ([2]; tail vein bolus, 14C, 1-day): 0.012%
Percentage of dose in Heart ([2]; tail vein bolus, 14C, 1-day): 0.009%
Percentage of dose in Kidney ([2]; tail vein bolus, 14C, 1-day): 0.047%
Percentage of dose in Liver ([2]; tail vein bolus, 14C, 1-day): 2.50%
Percentage of dose in Spleen ([2]; tail vein bolus, 14C, 1-day): 0.23%
Percentage of dose in Bone ([2]; tail vein bolus, 14C, 6-hour): 5.52%
Percentage of dose in Brain ([2]; tail vein bolus, 14C, 6-hour): 0.014%
Percentage of dose in Heart ([2]; tail vein bolus, 14C, 6-hour): 0.017%
Percentage of dose in Kidney ([2]; tail vein bolus, 14C, 6-hour): 0.11%
Percentage of dose in Liver ([2]; tail vein bolus, 14C, 6-hour): 7.03%
Percentage of dose in Spleen ([2]; tail vein bolus, 14C, 6-hour): 0.34%
Percentage of dose in Bone ([2]; tail vein bolus, 14C, 7-day): 3.51%
Percentage of dose in Brain ([2]; tail vein bolus, 14C, 7-day): LOD
Percentage of dose in Heart ([2]; tail vein bolus, 14C, 7-day): LOD
Percentage of dose in Kidney ([2]; tail vein bolus, 14C, 7-day): 0.020%
Percentage of dose in Liver ([2]; tail vein bolus, 14C, 7-day): 0.61%
Percentage of dose in Spleen ([2]; tail vein bolus, 14C, 7-day): 0.086%
Percentage of dose in Bone ([2]; tail vein bolus, 14C, 14-day): 2.52%
Percentage of dose in Brain ([2]; tail vein bolus, 14C, 14-day): LOD
Percentage of dose in Heart ([2]; tail vein bolus, 14C, 14-day): LOD
Percentage of dose in Kidney ([2]; tail vein bolus, 14C, 14-day): 0.013%
Percentage of dose in Liver ([2]; tail vein bolus, 14C, 14-day): 0.27%
Percentage of dose in Spleen ([2]; tail vein bolus, 14C, 14-day): 0.050%
Percentage of dose in Bone ([2]; tail vein bolus, 14C, 28-day): 2.44%
Percentage of dose in Brain ([2]; tail vein bolus, 14C, 28-day): LOD
Percentage of dose in Heart ([2]; tail vein bolus, 14C, 28-day): LOD
Percentage of dose in Kidney ([2]; tail vein bolus, 14C, 28-day): 0.0092%
Percentage of dose in Liver ([2]; tail vein bolus, 14C, 28-day): 0.10%
Percentage of dose in Spleen ([2]; tail vein bolus, 14C, 28-day): 0.039%
